Measurements reported in patent US20240309093A1 (MINGHUI PHARMACEUTICAL HANGZHOU, published 2024).
Where two headings read alike, the source gives them in different places.

Assays:
[1] = target: T1, recombinant human PD-1-his protein (human, UniProt Q15116 25-167); assay: ELISA; PD-1-his coated 2 µg/mL, anti-human IgG Fc-HRP
T1 construct: also called hPD-1-his; not shown: his tag
Description: (§1) The plates were washed three times with PBST. 5% PBS-Milk was added and incubated at room temperature for 2 h. The plates were washed three times with PBST. All the nanobody-Fc fusion proteins were subject to 3-fold gradient dilutions with an initial concentration of 10 μg/mL, added into each well at 30 μL/well, and incubated at room temperature for 1 hr. The plates were washed three times with PBST. The secondary antibody Goat-Anti-Human-IgG-Fc-HRP was diluted at 1:8000, added into each well at 30 μL/well, and incubated at room temperature for 50 min. The plates were washed nine times with PBST. TMB was added into each well at 30 μL/well and developed at room temperature in dark for 1 min to 5 min. 2 M hydrochloric acid was added at 30 μL/well to stop the reaction. The OD450 absorbance value was read by a microplate reader. Graphpad Prism software was used to fit the curve and calculate the EC₅₀ value (see Table 7).

[2] = target: T2, recombinant human PD-1-Fc-Biotin (human, UniProt Q15116 25-167, biotin (site not stated)); assay: competitive ELISA; PD-L1-mFc coated, 0.5 µg/mL PD-1-Fc-Biotin, streptavidin-HRP
T2 construct: also called antigen protein human PD-1; not shown: Fc
Description: The plates were washed three times with PBST. 5% PBS-Milk was added and incubated at room temperature for 1 hr. All the nanobody-Fc fusion proteins were subject to 3-fold gradient dilutions with an initial concentration of 10 μg/mL, added into each well at 30 μL/well, and incubated at room temperature for 1 hr. […] The well plates were washed with PBST between incubations.

[3] = target: T1, recombinant human PD-1-his protein; assay: ELISA; PD-1-his coated 2 µg/mL, anti-human IgG Fc-HRP; remark: listed apart in the source
Description: as §1, with “PBS-Milk” for “PBS-Milk was added”, “3-folded” for “3-fold”, “dilution” for “dilutions”, “calculate” for “calculate the”, “values.” for “value (see Table 7).”

T1 sequence (Q15116 25-167 limits assumed): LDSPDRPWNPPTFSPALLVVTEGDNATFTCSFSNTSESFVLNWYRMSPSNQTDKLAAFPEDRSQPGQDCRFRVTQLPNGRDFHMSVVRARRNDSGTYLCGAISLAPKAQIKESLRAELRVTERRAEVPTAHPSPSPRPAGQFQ
T2 sequence (Q15116 25-167 limits assumed): as above

Binder	EC50 [1] [nM]	IC50 [2] [nM]	EC50 [3] [nM]
MHPD1-A-2 H Fc (Fc fusion, not shown: a dimerising Fc or GST; small tags and cut ends) VHH: QVQLVESGGGLVQPGGSLRLSCAASGRFPSIYAMGWFRQAPGKGLEFVAGIGWRYATTYYADSVKGRFTISRDNTKNTLYLQMNSLRAEDTAVYYCAADLDHSGFDYWGQGTLVTVSS	0.553	0.419	–
MHPD1-A-5 H Fc (Fc fusion, not shown: a dimerising Fc or GST; small tags and cut ends) VHH: QVQLVESGGGLVQPGGSLRLSCAASGSSLSIYAMGWFRQAPGKGLEFVAGIGWAYATTYYADSVKGRFTISRDNTKNTLYLQMNSLRAEDTAVYYCAADLDHSGFDYWGQGTLVTVSS	0.157	0.306	–
MHPD1-A-9 H Fc (Fc fusion, not shown: a dimerising Fc or GST; small tags and cut ends) VHH: QVQLVESGGGLVQPGGSLRLSCAASGSGHSIYAMGWFRQAPGKGLEFVAGIGWSYATTYYADSVKGRFTISRDNTKNTLYLQMNSLRAEDTAVYYCAADLDHSGFDYWGQGTLVTVSS	0.163	0.256	–
MHPD1-A-10 H Fc (Fc fusion, not shown: a dimerising Fc or GST; small tags and cut ends) VHH: QVQLVESGGGLVQPGGSLRLSCAASGSDDRIYAMGWFRQAPGKGLEFVAGIGWRYATTYYADSVKGRFTISRDNTKNTLYLQMNSLRAEDTAVYYCAADLDHSGFDYWGQGTLVTVSS	0.2	0.287	–
MHPD1-A-11 H Fc (Fc fusion, not shown: a dimerising Fc or GST; small tags and cut ends) VHH: QVQLVESGGGLVQPGGSLRLSCAASGSQLSIYAMGWFRQAPGKGLEFVAGIGWRFATTYYADSVKGRFTISRDNTKNTLYLQMNSLRAEDTAVYYCAADLDHSGFDYWGQGTLVTVSS	0.222	0.365	–
MHPD1-A-12 H Fc (Fc fusion, not shown: a dimerising Fc or GST; small tags and cut ends) VHH: QVQLVESGGGLVQPGGSLRLSCAASGSDYAIYAMGWFRQAPGKGLEFVAGIGWAFATTYYADSVKGRFTISRDNTKNTLYLQMNSLRAEDTAVYYCAADLDHSGFDYWGQGTLVTVSS	0.311	0.293	–
MHPD1-A-16 H Fc (Fc fusion, not shown: a dimerising Fc or GST; small tags and cut ends) VHH: QVQLVESGGGLVQPGGSLRLSCATSGSRVSIYAMGWFRQAPGKGLEFVAGIGWAYATTYYADSVKGRFTISRDNTKNTLYLQMNSLRAEDTAVYYCAADLDHSGFDYWGQGTLVTVSS	–	–	0.187
MHPD1-A-17 H Fc (Fc fusion, not shown: a dimerising Fc or GST; small tags and cut ends) VHH: QVQLVESGGGLVQPGGSLRLSCATSGSISSIYAMGWFRQAPGKGLEFVAGIGWAYATTYYADSVKGRFTISRDNTKNTLYLQMNSLRAEDTAVYYCAADLDHSGFDYWGQGTLVTVSS	–	–	0.196
MHPD1-A-1 H Fc (Fc fusion, not shown: a dimerising Fc or GST; small tags and cut ends) VHH: QVQLVESGGGLVQPGGSLRLSCAASGSDPSIYAMGWFRQAPGKGLEFVAGIGWAWATTYYADSVKGRFTISRDNTKNTLYLQMNSLRAEDTAVYYCAADLDRSGFDYWGQGTLVTVSS	0.613	0.572	–
MHPD1-A-6 H Fc (Fc fusion, not shown: a dimerising Fc or GST; small tags and cut ends) VHH: QVQLVESGGGLVQPGGSLRLSCAASGRRPSIYAMGWFRQAPGKGLEFVAGIGWNYATTYYADSVKGRFTISRDNTKNTLYLQMNSLRAEDTAVYYCAADLDHSGFDYWGQGTLVTVSS	0.16	0.407	–
MHPD1-A-8 H Fc (Fc fusion, not shown: Fc) QVQLVESGGGLVQPGGSLRLSCAASGGRPSIYAMGWFRQAPGKGLEFVAGIGWAFATTYYADSVKGRFTISRDNTKNTLYLQMNSLRAEDTAVYYCAADLDHSGFDYWGQGTLVTVSS	0.169	0.323	–
MHPD1-A-13 H Fc (Fc fusion, not shown: Fc) QVQLVESGGGLVQPGGSLRLSCAASHADPSIYAMGWFRQAPGKGLEFVAGIGWNYATTYYADSVKGRFTISRDNTKNTLYLQMNSLRAEDTAVYYCAADLDHSGFDYWGQGTLVTVSS	0.14	0.395	–

More lines, now with the values ahead:

EC50 [1] [nM]	IC50 [2] [nM]	EC50 [3] [nM]	Binder
–	–	0.178	MHPD1-A-18 H Fc (Fc fusion, not shown: a dimerising Fc or GST; small tags and cut ends) VHH: QVQLVESGGGLVQPGGSLRLSCATSGSRSSIYAMGWFRQAPGKGLEFVAGLGWAYATTYYADSVKGRFTISRDNTKNTLYLQMNSLRAEDTAVYYCAADLDHLGFDYWGQGTLVTVSS
–	–	0.27	MHPD1-A-19 H Fc (Fc fusion, not shown: a dimerising Fc or GST; small tags and cut ends) VHH: QVQLVESGGGLVQPGGSLRLSCATSGSEVSIYAMGWFRQAPGKGLEFVAGIGWAYATTYYADSVKGRFTISRDNTKNTLYLQMNSLRAEDTAVYYCAADLDRRGFDYWGQGTLVTVSS
–	–	0.242	MHPD1-A-22 H Fc (Fc fusion, not shown: Fc region) VHH: QVQLVESGGGLVQPGGSLRLSCATSGSRRSIYAMGWFRQAPGKGLEFVAGIGWAYATTYYADSVKGRFTISRDNTKNTLYLQMNSLRAEDTAVYYCAADLDRGGFDYWGQGTLVTVSS
–	–	0.177	MHPD1-A-24 H Fc (Fc fusion, not shown: Fc) QVQLVESGGGLVQPGGSLRLSCATSGSRHSIYAMGWFRQAPGKGLEFVAGIGWAYATTYYADSVKGRFTISRDNTKNTLYLQMNSLRAEDTAVYYCAADLDRAGFDYWGQGTLVTVSS
–	–	0.211	MHPD1-A-25 H Fc (Fc fusion, not shown: Fc) QVQLVESGGGLVQPGGSLRLSCATSGVRRSIYAMGWFRQAPGKGLEFVAGIGWAYATTYYADSVKGRFTISRDNTKNTLYLQMNSLRAEDTAVYYCAADLDRHGFDYWGQGTLVTVSS
–	–	0.54	MHPD1-A-27 H Fc (Fc fusion, not shown: Fc region) VHH: QVQLVESGGGLVQPGGSLRLSCATSKSRRSIYAMGWFRQAPGKGLEFVAGIGWAYATTYYADSVKGRFTISRDNTKNTLYLQMNSLRAEDTAVYYCAADLDHSGFDYWGQGTLVTVSS
–	–	0.242	MHPD1-A-28 H Fc (Fc fusion, not shown: Fc region) VHH: QVQLVESGGGLVQPGGSLRLSCATSKLRRSIYAMGWFRQAPGKGLEFVAGIGWAYATQYYADSVKGRFTISRDNTKNTLYLQMNSLRAEDTAVYYCAADLDHSGFDYWGQGTLVTVSS
–	–	2.18	MHPD1-A-29 H Fc (Fc fusion, not shown: Fc region) VHH: QVQLVESGGGLVQPGGSLRLSCATSGSGGSIYAMGWFRQAPGKGLEFVAGIGWAYATTYYADSVKGRFTISRDNTKNTLYLQMNSLRAEDTAVYYCAADLDHSGFDYWGQGTLVTVSS
–	–	0.219	MHPD1-A-31 H Fc (Fc fusion, not shown: Fc region) VHH: QVQLVESGGGLVQPGGSLRLSCATSGSRRSIYAMGWFRQAPGKGLEFVAGLGWAYATTYYADSVKGRFTISRDNTKNTLYLQMNSLRAEDTAVYYCAADLDHHGFDYWGQGTLVTVSS
–	–	0.628	MHPD1-A-33 H Fc (Fc fusion, not shown: Fc region) VHH: QVQLVESGGGLVQPGGSLRLSCATSGSRSQIYAMGWFRQAPGKGLEFVAGIGWAYATTYYADSVKGRFTISRDNTKNTLYLQMNSLRAEDTAVYYCAADLDHSGFDYWGQGTLVTVSS
–	–	0.824	MHPD1-A-35 H Fc (Fc fusion, not shown: Fc region) VHH: QVQLVESGGGLVQPGGSLRLSCATSAPRRSIYAMGWFRQAPGKGLEFVAGIGWAYGTTYYADSVKGRFTISRDNTKNTLYLQMNSLRAEDTAVYYCAADLDHSGFDYWGQGTLVTVSS
–	–	0.421	MHPD1-A-38 H Fc (Fc fusion, not shown: a dimerising Fc or GST; small tags and cut ends) VHH: QVQLVESGGGLVQPGGSLRLSCATSGNRRSIYAMGWFRQAPGKGLEFVAGIGWAYATTYYADSVKGRFTISRDNTKNTLYLQMNSLRAEDTAVYYCAADLDRRGFDYWGQGTLVTVSS
–	–	0.193	MHPD1-A-42 H Fc (Fc fusion, not shown: Fc) QVQLVESGGGLVQPGGSLRLSCATSGSRQTIYAMGWFRQAPGKGLEFVAGIGWAYATQYYADSVKGRFTISRDNTKNTLYLQMNSLRAEDTAVYYCAADLDHSGFDYWGQGTLVTVSS
–	–	0.387	MHPD1-A-43 H Fc (Fc fusion, not shown: a dimerising Fc or GST; small tags and cut ends) VHH: QVQLVESGGGLVQPGGSLRLSCATSGSRRSIYAMGWFRQAPGKGLEFVAGIGWAYATTYYADSVKGRFTISRDNTKNTLYLQMNSLRAEDTAVYYCAADLDRAGFDYWGQGTLVTVSS
–	–	0.198	MHPD1-A-44 H Fc (Fc fusion, not shown: Fc) QVQLVESGGGLVQPGGSLRLSCATSGSRTRIYAMGWFRQAPGKGLEFVAGIGWAYATEYYADSVKGRFTISRDNTKNTLYLQMNSLRAEDTAVYYCAADLDHSGFDYWGQGTLVTVSS
–	–	0.252	MHPD1-A-46 H Fc (Fc fusion, not shown: a dimerising Fc or GST; small tags and cut ends) VHH: QVQLVESGGGLVQPGGSLRLSCATSGSKGSIYAMGWFRQAPGKGLEFVAGIGWAYATTYYADSVKGRFTISRDNTKNTLYLQMNSLRAEDTAVYYCAADLDRSGFDYWGQGTLVTVSS
